# Measurements from publication PMC6048237.
# Where “and” joins values, the source holds several entries; their conditions need not be identical. Equal values may be shown once.
# Target: Trypanosoma evansi mevalonate kinase (TeMVK), N-terminal 6xHis-tagged recombinant (Trypanosoma evansi)
# Test: SEC; Superdex 200 16/600, 30 mM glycine pH 9.0, 150 mM NaCl; TeMVK expressed in autoinduction medium ZYM5052; sizes estimated from calibration with gel filtration standard
substance,measurement,value
"Trypanosoma evansi mevalonate kinase (TeMVK), N-terminal 6xHis-tagged recombinant (enzyme)",stoichiometry N,2 and 4
